# Experimental data reported in patent US20210292396A1.
# How the values were obtained:
# Experiment in all cases: cell-based or functional assay
# [1] = molecular target: Env of HIV isolate X2131.C1.B5 (clade G) (HIV)
# [2] = molecular target: Env of HIV isolate R1166.C1 (clade AE) (HIV)
# [3] = molecular target: HIV Env of isolate RHPA.7 (HIV)
# [4] = molecular target: HIV Env of isolate T278-50 (HIV)
# [5] = molecular target: Env of HIV isolate 6838.v1.c35 (clade C) (HIV)
# [6] = molecular target: Env of HIV isolate P1981.C5.3 (clade G) (HIV)
# [7] = molecular target: Env of HIV isolate ZM233.6 (clade C) (HIV)
# [8] = molecular target: HIV Env of isolate Q769.d22 (HIV)
# [9] = molecular target: HIV Env of isolate PVO.04 (HIV)
# [10] = molecular target: Env of HIV isolate 3337.v2.c6 (clade CD) (HIV)
# [11] = molecular target: HIV Env of isolate 231965.c01 (HIV)
# [12] = molecular target: Env of HIV isolate CNE58 (clade C in Table 7) (HIV)
# [13] = molecular target: Env of HIV isolate KER2018.11 (clade A) (HIV)
# [14] = molecular target: HIV Env of isolate T253-11 (HIV)
# [15] = molecular target: Env of HIV isolate BJOX009000.02.4 (clade AE) (HIV)
# [16] = molecular target: Env of HIV isolate ZM249.1 (clade C) (HIV)
# [17] = molecular target: Env of HIV isolate 928-28 (clade AG) (HIV)
# [18] = molecular target: HIV Env of isolate DU151.02 (HIV)
# [19] = molecular target: Env of HIV isolate PVO.04 (clade B) (HIV)
# [20] = molecular target: Env of HIV isolate X1632.S2.B10 (clade G) (HIV)
# [21] = molecular target: HIV Env of isolate 25711-2.4 (HIV)
# [22] = molecular target: Env of HIV isolate 6471.v1.c16 (clade C) (HIV)
# [23] = molecular target: Env of HIV isolate BR07.DG (clade B) (HIV)
# [24] = molecular target: HIV Env of isolate BS208.B1 (HIV)
# [25] = molecular target: Env of HIV isolate QH0692.42 (clade B) (HIV)
# [26] = molecular target: Env of HIV isolate 263-8 (clade AG) (HIV)
# [27] = molecular target: HIV Env of isolate ZA012.29 (HIV)
# [28] = molecular target: HIV Env of isolate 3589.v1.c4 (HIV)
# [29] = molecular target: HIV Env of isolate ZM197.7 (HIV)
# [30] = molecular target: HIV Env of isolate T33-7 (HIV)
# [31] = molecular target: HIV Env of isolate 6405.v4.c34 (HIV)
# [32] = molecular target: Env of HIV isolate CH038.12 (clade BC) (HIV)
# [33] = molecular target: HIV Env of isolate T280-5 (HIV)
# [34] = molecular target: HIV Env of isolate HT593.1 (HIV)
# [35] = molecular target: Env of HIV isolate C3347.c11 (clade AE) (HIV)
# [36] = molecular target: HIV Env of isolate C3347.c11 (HIV)
# [37] = molecular target: Env of HIV isolate 16845-2.22 (clade C) (HIV)
# [38] = molecular target: HIV Env of isolate 426c (HIV)
# [39] = molecular target: HIV Env of isolate HXB2.DG (HIV) (UniProt P04578)
# [40] = molecular target: HIV Env of isolate CNE59 (HIV)
# [41] = molecular target: HIV Env of isolate Q842.d12 (HIV)
# [42] = molecular target: HIV Env of isolate THRO.18 (HIV)
# [43] = molecular target: Env of HIV isolate NKU3006.ec1 (clade D) (HIV)
# [44] = molecular target: Env of HIV isolate 3637.v5.c3 (clade C) (HIV)
# [45] = molecular target: HIV Env of isolate 16845-2.22 (HIV)
# [46] = molecular target: Env of HIV isolate WITO.33 (clade B) (HIV)
# [47] = molecular target: Env of HIV isolate CNE53 (clade C in Table 7) (HIV)
# [48] = molecular target: HIV Env of isolate 00836-2.5 (HIV)
# [49] = molecular target: HIV Env of isolate T250-4 (HIV)
# [50] = molecular target: Env of HIV isolate CNE55 (clade AE) (HIV)
# [51] = molecular target: HIV Env of isolate X2131.C1.B5 (HIV)
# [52] = molecular target: Env of HIV isolate 398-F1.F6.20 (clade A) (HIV)
# [53] = molecular target: HIV Env of isolate 16055-2.3 (HIV)
substance,measurement,setting,value
PGT121 (antibody),"IC50, pseudovirus neutralization",[1],0.013 µg/mL
same,"IC50, pseudovirus neutralization",[2],> 50 µg/mL
same,IC80,[3],0.093 µg/mL
same,IC80,[4],> 50 µg/mL
same,"IC50, pseudovirus neutralization",[5],0.0613 µg/mL
same,"IC50, pseudovirus neutralization",[6],0.007 µg/mL
same,"IC50, pseudovirus neutralization",[7],0.731 µg/mL
same,IC80,[8],> 50 µg/mL
same,IC80,[9],0.498 µg/mL
same,"IC50, pseudovirus neutralization",[10],1.39 µg/mL
same,"IC80, pseudovirus neutralization",[11],> 50 µg/mL
same,"IC50, pseudovirus neutralization",[12],9.34 µg/mL
same,"IC50, pseudovirus neutralization",[13],> 50 µg/mL
same,IC80,[14],> 50 µg/mL
same,"IC50, pseudovirus neutralization",[15],0.751 µg/mL
same,"IC50, pseudovirus neutralization",[16],> 50 µg/mL
same,"IC50, pseudovirus neutralization",[17],5.76 µg/mL
same,"IC80, pseudovirus neutralization",[18],0.0283 µg/mL
same,"IC50, pseudovirus neutralization",[19],0.189 µg/mL
same,"IC50, pseudovirus neutralization",[20],> 50 µg/mL
same,"IC80, pseudovirus neutralization",[21],0.0497 µg/mL
same,"IC50, pseudovirus neutralization",[22],> 50 µg/mL
same,"IC50, pseudovirus neutralization",[23],0.132 µg/mL
same,IC80,[24],> 50 µg/mL
same,"IC50, pseudovirus neutralization",[25],0.972 µg/mL
same,"IC50, pseudovirus neutralization",[26],0.484 µg/mL
same,"IC80, pseudovirus neutralization",[27],0.0347 µg/mL
same,IC80,[28],> 50 µg/mL
same,"IC80, pseudovirus neutralization",[29],> 50 µg/mL
same,IC80,[30],> 50 µg/mL
same,"IC80, pseudovirus neutralization",[31],0.136 µg/mL
same,"IC50, pseudovirus neutralization",[32],0.0113 µg/mL
same,IC80,[33],0.038 µg/mL
same,IC80,[34],> 50 µg/mL
same,"IC50, pseudovirus neutralization",[35],> 50 µg/mL
same,IC80,[36],> 50 µg/mL
same,"IC50, pseudovirus neutralization",[37],2.72 µg/mL
same,"IC80, pseudovirus neutralization",[38],> 50 µg/mL
same,IC80,[39],> 50 µg/mL
same,IC80,[40],> 50 µg/mL
same,IC80,[41],0.0597 µg/mL
same,IC80,[42],> 50 µg/mL
same,"IC50, pseudovirus neutralization",[43],> 50 µg/mL
same,"IC50, pseudovirus neutralization",[44],> 50 µg/mL
same,"IC80, pseudovirus neutralization",[45],18.6 µg/mL
same,"IC50, pseudovirus neutralization",[46],0.479 µg/mL
same,"IC50, pseudovirus neutralization",[47],0.0263 µg/mL
same,"IC80, pseudovirus neutralization",[48],> 50 µg/mL
same,IC80,[49],0.0123 µg/mL
same,"IC50, pseudovirus neutralization",[50],> 50 µg/mL
same,"IC80, pseudovirus neutralization",[51],0.036 µg/mL
same,"IC50, pseudovirus neutralization",[52],0.0223 µg/mL
same,"IC80, pseudovirus neutralization",[53],2.78 µg/mL
